The values below come from patent US20220119549A1 (TAVOTEK BIOTHERAPEUTICS HONG KONG, published 2022).

Test [1] addresses T1, recombinant human TNFα (human, UniProt P01375 77-233).
T1 construct: Bought protein
Description: ELISA, recombinant human TNFα coated at 1 µg/mL, after protease cleavage. On the procedure: (§1) In this assay, 1 μg/mL recombinant human TNFα (R&D systems) was coated on an ELISA plate. Increasing concentrations of anti-TNFα shielded antibodies were applied on the plate and their binding to the recombinant human TNFα was detected by HRP-conjugated anti-human secondary antibody.
A general note: An ELISA detects its analyte on a solid surface through an enzyme-linked reagent.

Test [2] deals with T1, recombinant human TNFα. Description: ELISA on human TNFα, after MMP2 cleavage. Here is the method: as §1
Test [3] has as its target T1, recombinant human TNFα. Description: cell-based or functional assay.
Test [4] addresses T1, recombinant human TNFα. Description: ELISA, recombinant human TNFα coated at 1 µg/mL, HRP anti-human secondary. On the procedure:
as §1

Substitutions are numbered along the chain they refer to.

T1 sequence (P01375 77-233 limits assumed): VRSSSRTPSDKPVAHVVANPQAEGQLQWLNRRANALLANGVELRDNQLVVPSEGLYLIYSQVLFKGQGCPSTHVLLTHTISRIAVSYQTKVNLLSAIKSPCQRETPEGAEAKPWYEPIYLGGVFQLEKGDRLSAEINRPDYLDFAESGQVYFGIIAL

B1: TAVO186187 after digestion by MMP2 (antibody)
heavy: EVQLVESGGGLVQPGGSLRLSCAASGFDFADYAMHWVRQAPGKGLEWVSAITWNGGHTDYADSVKGRFTISRDNSKNTLYLQMNSLRAEDTAVYYCAKVSYLSTASSLDYWGQGTLVTVSSASTKGPSVFPLAPSSKSTSGGTAALGCLVKDYFPEPVTVSWNSGALTSGVHTFPAVLQSSGLYSLSSVVTVPSSSLGTQTYICNVNHKPSNTKVDKKVEPKSCDKTHTCPPCPAPPAAGPSVFLFPPKPKDTLMISRTPEVTCVVVDVSHEDPEVKFNWYVDGVEVHNAKTKPREEQYNSTYRVVSVLTVLHQDWLNGKEYKCKVSNKALPAPIEKTISKAKGQPREPQVYTLPPSRDELTKNQVSLTCLVKGFYPSDIAVEWESNGQPENNYKTTPPVLDSDGSFLLYSKLTVDKSRWQQGNVFSCSVLHEALHSHYTQKSLSLSPGK
light: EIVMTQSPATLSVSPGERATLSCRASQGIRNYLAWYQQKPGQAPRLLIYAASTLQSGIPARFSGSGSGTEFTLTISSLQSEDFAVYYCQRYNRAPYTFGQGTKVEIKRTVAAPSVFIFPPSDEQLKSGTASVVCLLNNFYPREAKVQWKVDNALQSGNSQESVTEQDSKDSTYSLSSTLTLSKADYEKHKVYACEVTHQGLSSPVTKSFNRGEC
notes: also called digested shielded antibody; digested TAVO186187; not shown: remnant of the protease-cleavable linker left after cleavage
For B1, in the test with recombinant human TNFα [1], the binding result is reported as “binds”.

B2: TAVO194195 after digestion by MMP2 (antibody)
heavy: B1 heavy
light: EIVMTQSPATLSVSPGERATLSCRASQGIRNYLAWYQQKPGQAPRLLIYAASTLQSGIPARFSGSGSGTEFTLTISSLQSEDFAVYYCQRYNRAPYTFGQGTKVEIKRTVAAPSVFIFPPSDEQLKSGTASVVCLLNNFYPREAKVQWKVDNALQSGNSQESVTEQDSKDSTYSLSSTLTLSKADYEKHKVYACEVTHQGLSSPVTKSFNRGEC
notes: also called digested shielded antibody; digested TAVO194195; not shown: remnant of the protease-cleavable linker left after cleavage
Turning to B2, the binding result with recombinant human TNFα [1] is listed as “binds”.

B3: TAVO196197 after digestion by MMP3 (antibody)
heavy: B1 heavy
light: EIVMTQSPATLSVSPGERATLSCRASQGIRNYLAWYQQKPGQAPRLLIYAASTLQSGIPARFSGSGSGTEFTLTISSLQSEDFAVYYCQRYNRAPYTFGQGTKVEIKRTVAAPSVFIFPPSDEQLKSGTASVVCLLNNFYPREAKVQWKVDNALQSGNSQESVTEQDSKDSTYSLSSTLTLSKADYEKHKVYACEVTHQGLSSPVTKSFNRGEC
notes: also called digested shielded antibody; digested TAVO196197; not shown: remnant of the protease-cleavable linker left after cleavage
As for B3, the binding result with recombinant human TNFα [1] was “binds”.

B4: TAVO198199 after digestion by uPA (antibody)
heavy: B1 heavy
light: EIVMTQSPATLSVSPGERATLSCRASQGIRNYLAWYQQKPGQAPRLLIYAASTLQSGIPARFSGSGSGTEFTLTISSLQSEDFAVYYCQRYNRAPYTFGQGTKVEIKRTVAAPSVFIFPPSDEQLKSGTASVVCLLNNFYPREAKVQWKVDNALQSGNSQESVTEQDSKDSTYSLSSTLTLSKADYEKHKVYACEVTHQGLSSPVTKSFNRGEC
notes: also called digested shielded antibody; digested TAVO198199; not shown: remnant of the protease-cleavable linker left after cleavage
B4: in the test with recombinant human TNFα [1], the binding result is on record as “binds”.

B5: TAVO192193 after digestion by MMP2 (antibody)
heavy: B1 heavy
light: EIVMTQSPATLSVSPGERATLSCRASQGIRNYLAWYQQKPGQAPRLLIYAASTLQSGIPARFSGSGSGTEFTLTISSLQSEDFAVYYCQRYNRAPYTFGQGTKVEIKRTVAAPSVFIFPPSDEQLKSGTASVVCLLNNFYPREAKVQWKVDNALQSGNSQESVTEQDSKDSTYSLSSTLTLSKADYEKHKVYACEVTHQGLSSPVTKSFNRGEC
notes: also called digested shielded antibody; digested TAVO192193; not shown: remnant of the protease-cleavable linker left after cleavage
On to B5, for which the binding result with recombinant human TNFα [1] is “binds”.

B6: TAVO188189 after digestion by MMP2 (antibody)
heavy: B1 heavy
light: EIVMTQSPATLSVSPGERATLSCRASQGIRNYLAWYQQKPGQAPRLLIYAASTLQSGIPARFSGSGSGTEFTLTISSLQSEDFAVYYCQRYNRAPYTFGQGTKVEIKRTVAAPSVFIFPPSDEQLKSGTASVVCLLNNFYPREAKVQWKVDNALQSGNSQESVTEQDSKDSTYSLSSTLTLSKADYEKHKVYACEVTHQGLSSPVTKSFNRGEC
notes: also called digested shielded antibody; digested TAVO188189; not shown: remnant of the protease-cleavable linker left after cleavage
For the molecule B6, in the test with recombinant human TNFα [1], the binding result is recorded as “binds”.

B7: TAVO271272 after digestion by MMP2 (antibody)
heavy: B1 heavy
light: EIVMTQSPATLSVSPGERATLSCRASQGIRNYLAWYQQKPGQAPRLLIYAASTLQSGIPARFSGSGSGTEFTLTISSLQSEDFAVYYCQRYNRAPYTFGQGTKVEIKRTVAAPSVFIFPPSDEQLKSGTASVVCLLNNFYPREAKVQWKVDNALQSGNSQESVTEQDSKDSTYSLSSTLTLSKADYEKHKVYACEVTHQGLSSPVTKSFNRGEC
notes: the antibody part is that of TAVO167127 (EAC271/EAC272 are identical to EAC190/EAC191 but for the IGF2 mutations); not shown: remnant of the protease-cleavable linker left after cleavage
Turning to B7, the binding result with recombinant human TNFα [2] is listed as “binds”.

B8: TAVO190191 after digestion by MMP2 (antibody)
heavy: B1 heavy
light: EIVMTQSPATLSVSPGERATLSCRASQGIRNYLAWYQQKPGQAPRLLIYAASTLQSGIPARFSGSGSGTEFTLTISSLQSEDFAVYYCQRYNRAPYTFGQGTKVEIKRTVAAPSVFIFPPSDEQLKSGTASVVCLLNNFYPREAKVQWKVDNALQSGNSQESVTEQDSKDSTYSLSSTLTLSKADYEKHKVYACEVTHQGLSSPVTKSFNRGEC
notes: also called digested shielded antibody; digested TAVO190191; not shown: remnant of the protease-cleavable linker left after cleavage
With B8, the binding result with recombinant human TNFα [1] is given as “binds”.

B9: TAVO194195 (antibody, human IgG1, kappa)
heavy: GIVEECCFRSCDLALLETYCAGGGGSGPLGMLSQGGGGSEVQLVESGGGLVQPGGSLRLSCAASGFDFADYAMHWVRQAPGKGLEWVSAITWNGGHTDYADSVKGRFTISRDNSKNTLYLQMNSLRAEDTAVYYCAKVSYLSTASSLDYWGQGTLVTVSSASTKGPSVFPLAPSSKSTSGGTAALGCLVKDYFPEPVTVSWNSGALTSGVHTFPAVLQSSGLYSLSSVVTVPSSSLGTQTYICNVNHKPSNTKVDKKVEPKSCDKTHTCPPCPAPPAAGPSVFLFPPKPKDTLMISRTPEVTCVVVDVSHEDPEVKFNWYVDGVEVHNAKTKPREEQYNSTYRVVSVLTVLHQDWLNGKEYKCKVSNKALPAPIEKTISKAKGQPREPQVYTLPPSRDELTKNQVSLTCLVKGFYPSDIAVEWESNGQPENNYKTTPPVLDSDGSFLLYSKLTVDKSRWQQGNVFSCSVLHEALHSHYTQKSLSLSPGK
light: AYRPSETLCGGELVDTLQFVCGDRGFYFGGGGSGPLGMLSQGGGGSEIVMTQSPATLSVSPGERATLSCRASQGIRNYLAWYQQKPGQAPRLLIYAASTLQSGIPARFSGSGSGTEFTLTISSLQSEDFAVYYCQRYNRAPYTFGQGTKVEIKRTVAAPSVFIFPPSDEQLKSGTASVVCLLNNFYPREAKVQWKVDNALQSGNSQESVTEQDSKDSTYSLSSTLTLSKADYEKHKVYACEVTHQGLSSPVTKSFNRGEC
notes: also called anti-TNFα shielded antibody with IGF2-based masking domain; EAC194/EAC195
As for B9, the “HEK-Blue TNFα reporter assay: potency in blocking TNFα functional activity, fold lower than TAVO167127” value with recombinant human TNFα [3] was about 50 fold. Also, in the test with recombinant human TNFα [4], the “fold lower binding affinity than TAVO167127” value is at least 5 fold.

B10: TAVO198199 (antibody, human IgG1, kappa)
heavy: B9 heavy with G27L, P28S, L29G, G30R, M31S, L32D, S33N, Q34H
light: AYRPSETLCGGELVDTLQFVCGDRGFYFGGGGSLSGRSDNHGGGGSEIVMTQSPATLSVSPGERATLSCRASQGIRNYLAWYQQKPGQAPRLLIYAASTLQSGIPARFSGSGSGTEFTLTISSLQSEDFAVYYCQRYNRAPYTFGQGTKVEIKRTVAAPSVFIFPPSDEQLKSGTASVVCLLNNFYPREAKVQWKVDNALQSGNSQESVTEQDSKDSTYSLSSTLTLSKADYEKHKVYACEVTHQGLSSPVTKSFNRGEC
notes: also called anti-TNFα shielded antibody with IGF2-based masking domain; EAC198/EAC199
Consider B10, for which, in the test with recombinant human TNFα [3], the “HEK-Blue TNFα reporter assay: potency in blocking TNFα functional activity, fold lower than TAVO167127” value is about 50 fold. In the test with recombinant human TNFα [4], the “fold lower binding affinity than TAVO167127” value was at least 5 fold.

B11: TAVO196197 (antibody, human IgG1, kappa)
heavy: GIVEECCFRSCDLALLETYCAGGGGSRPKPVEVWRKGGGGSEVQLVESGGGLVQPGGSLRLSCAASGFDFADYAMHWVRQAPGKGLEWVSAITWNGGHTDYADSVKGRFTISRDNSKNTLYLQMNSLRAEDTAVYYCAKVSYLSTASSLDYWGQGTLVTVSSASTKGPSVFPLAPSSKSTSGGTAALGCLVKDYFPEPVTVSWNSGALTSGVHTFPAVLQSSGLYSLSSVVTVPSSSLGTQTYICNVNHKPSNTKVDKKVEPKSCDKTHTCPPCPAPPAAGPSVFLFPPKPKDTLMISRTPEVTCVVVDVSHEDPEVKFNWYVDGVEVHNAKTKPREEQYNSTYRVVSVLTVLHQDWLNGKEYKCKVSNKALPAPIEKTISKAKGQPREPQVYTLPPSRDELTKNQVSLTCLVKGFYPSDIAVEWESNGQPENNYKTTPPVLDSDGSFLLYSKLTVDKSRWQQGNVFSCSVLHEALHSHYTQKSLSLSPGK
light: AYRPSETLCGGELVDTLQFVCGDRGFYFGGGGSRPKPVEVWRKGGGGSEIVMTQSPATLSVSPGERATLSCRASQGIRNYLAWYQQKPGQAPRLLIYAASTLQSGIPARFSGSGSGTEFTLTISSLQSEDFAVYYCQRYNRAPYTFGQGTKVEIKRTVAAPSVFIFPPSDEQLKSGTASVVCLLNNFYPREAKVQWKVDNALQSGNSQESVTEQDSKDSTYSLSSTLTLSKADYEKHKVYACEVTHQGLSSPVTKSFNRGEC
notes: Undigested; also called anti-TNFα shielded antibody with IGF2-based masking domain; EAC196/EAC197
Turning to B11, in the test with recombinant human TNFα [3], the “HEK-Blue TNFα reporter assay: potency in blocking TNFα functional activity, fold lower than TAVO167127” value was about 50 fold. For the same molecule, the “fold lower binding affinity than TAVO167127” value with recombinant human TNFα [4] was at least 5 fold.
